Molecular target: recombinant caspase-3 (E. coli KRX lysate, pTS1k:caspase-3(T/S))
Experiment: cell-based or functional assay

HQ:CBS:HT (5x HQ tag:CBS:HaloTag) was tested, and the INDUCED luminescence, HisLink purification fraction E1 was 2.95e+06, the INDUCED luminescence, HisLink purification fraction E2 was 4.09e+07 and the INDUCED luminescence, HisLink purification fraction E3 was 3.29e+06. The INDUCED luminescence, HisLink purification fraction E4 was 216000, the INDUCED luminescence, HisLink purification fraction E5 was 48100 and the INDUCED luminescence, HisLink purification sample HSS was 1.29e+07. The INDUCED luminescence, HisLink purification sample NSM was 5.82e+06, the INDUCED luminescence, HisLink purification sample WASH was 3.71e+06 and the INDUCED luminescence, purified HQ:CBS:HT immobilised on HaloLink plate was 662000. For the same substance, the RESPONSE, HisLink purification fraction E1 was 699 fold, the RESPONSE, HisLink purification fraction E2 was 212 fold and the RESPONSE, HisLink purification fraction E3 was 178 fold. For the same substance, the RESPONSE, HisLink purification fraction E4 was 191 fold, the RESPONSE, HisLink purification fraction E5 was 178 fold and the RESPONSE, HisLink purification sample HSS was 43 fold. It also gave an RESPONSE, HisLink purification sample NSM of 33 fold, an RESPONSE, HisLink purification sample WASH of 479 fold and an RESPONSE, purified HQ:CBS:HT immobilised on HaloLink plate of 96 fold.

— patent EP3467119A1
